pKd: −log10 of the molar value.
Target: FcRn/β2 microglobulin (UniProt P55899)
Assay: SPR

pKd | Substance
5.30 | Guselkumab (antibody)
5.30 | Risankizumab (antibody)
5.30 | Tildrakizumab (antibody)
5.30 | Ustekinumab (antibody)
